Reference: patent US20170326229A1

How the values were obtained:
Assay in all cases: ELISA, gp120 on plate
[1] = target: CH505 Env w053.15 gp120 (HIV-1)
[2] = target: CH505 Env w136.B5 gp120 (HIV-1)
[3] = target: CH505 Env w100.B2 gp120 (HIV-1)
[4] = target: CH505 Env w100.A13 gp120 (HIV-1)
[5] = target: CH505 Env w136.B2 gp120 (HIV-1)
[6] = target: CH505 transmitted/founder (TF) Env gp120 (HIV-1)
[7] = target: CH505 Env w030.13 gp120 (HIV-1)
[8] = target: CH505 Env w078.17 gp120 (HIV-1)
[9] = target: CH505 Env w160.T4 gp120 (HIV-1)
[10] = target: CH505 Env w030.17 gp120 (HIV-1)
[11] = target: CH505 Env w030.36 gp120 (HIV-1)
[12] = target: CH505 Env w053.31 gp120 (HIV-1)
[13] = target: CH505 Env w030.21 gp120 (HIV-1)
[14] = target: CH505 Env w030.20 gp120 (HIV-1)
[15] = target: CH505 Env w004.54 gp120 (HIV-1)
[16] = target: CH505 Env w020.11 gp120 (HIV-1)
[17] = target: CH505 Env w078.6 gp120 (HIV-1)
[18] = target: CH505 Env w078.9 gp120 (HIV-1)
[19] = target: CH505 Env w078.33 gp120 (HIV-1)
[20] = target: CH505 Env w020.15 gp120 (HIV-1)
[21] = target: CH505 Env w136.B23 gp120 (HIV-1)
[22] = target: CH505 Env w053.22 gp120 (HIV-1)
[23] = target: CH505 Env w100.B4 gp120 (HIV-1)
[24] = target: CH505 Env w078.15 gp120 (HIV-1)
[25] = target: CH505 Env w136.B10 gp120 (HIV-1)
[26] = target: CH505 Env w053.29 gp120 (HIV-1)
[27] = target: CH505 Env w020.25 gp120 (HIV-1)

Substance	log-transformed AUC [1] [log AUC]	log-transformed AUC [2] [log AUC]	log-transformed AUC [3] [log AUC]	log-transformed AUC [4] [log AUC]	log-transformed AUC [5] [log AUC]	log-transformed AUC [6] [log AUC]	log-transformed AUC [7] [log AUC]	log-transformed AUC [8] [log AUC]	log-transformed AUC [9] [log AUC]	log-transformed AUC [10] [log AUC]	log-transformed AUC [11] [log AUC]	log-transformed AUC [12] [log AUC]	log-transformed AUC [13] [log AUC]	log-transformed AUC [14] [log AUC]	log-transformed AUC [15] [log AUC]	log-transformed AUC [16] [log AUC]	log-transformed AUC [20] [log AUC]	log-transformed AUC [22] [log AUC]	log-transformed AUC [24] [log AUC]	log-transformed AUC [27] [log AUC]	further results
CH106 (CH103 lineage monoclonal antibody)	10.1	10.9	7.8	12	12.7	11.3	11.9	8.7	12.3	8.2	8.5	13.4	10.9	7.3	8.1	5.4	10.5	9.8	11	9.4	log-transformed AUC [17]: 6.7 log AUC; log-transformed AUC [18]: 8.3 log AUC; log-transformed AUC [19]: 9.5 log AUC; log-transformed AUC [21]: 13.3 log AUC; log-transformed AUC [23]: 12.6 log AUC; log-transformed AUC [25]: 9 log AUC; log-transformed AUC [26]: 9.7 log AUC
CH103 lineage intermediate ancestor IA3 (antibody)						11	9								5.1	0.8	10.2	1.1	3	8.6	
CH103 lineage intermediate ancestor IA8 (antibody)						5.5	2								0.5	0.9	4.2			2.4	
CH103 lineage intermediate ancestor IA1 (antibody)	9.2	9.5	7.3	12.6	13.2	10.4	10.5	9	13.6	5.8	6.7	13.4	11.8	5.7	6.2	1.8	9.9	8.8	10.9	8.6	log-transformed AUC [17]: 3 log AUC; log-transformed AUC [18]: 6.3 log AUC; log-transformed AUC [19]: 8.2 log AUC; log-transformed AUC [21]: 14.4 log AUC; log-transformed AUC [23]: 13.7 log AUC; log-transformed AUC [25]: 9.2 log AUC; log-transformed AUC [26]: 8.8 log AUC
CH104 (CH103 lineage monoclonal antibody)	10.4	10.6	6.1	12.9	13.2	10.4	11.3	10	12.8	7	7.8	13.7	11.3	7.5	8.1	2.2	10.5	9.9	10.8	8.3	log-transformed AUC [17]: 4.5 log AUC; log-transformed AUC [18]: 6.9 log AUC; log-transformed AUC [19]: 9 log AUC; log-transformed AUC [21]: 14.2 log AUC; log-transformed AUC [23]: 13.1 log AUC; log-transformed AUC [25]: 8.9 log AUC; log-transformed AUC [26]: 9.8 log AUC
CH103 lineage intermediate ancestor IA7 (antibody)						9.2	4.7								2.3	0.1	8.2		0.7	6.4	
CH103 lineage intermediate ancestor IA6 (antibody)						9.1	6.5								2.9	0.8	7.8		1	6	
CH103 lineage intermediate ancestor IA2 (antibody)	9.5	9.9	7.5	12.5	13.1	10.8	11.4	9.9	13.4	7	7.3	13.3	11.5	6.3	6.8	2.6	10.5	9.3	11.5	9	log-transformed AUC [17]: 4.6 log AUC; log-transformed AUC [18]: 7.2 log AUC; log-transformed AUC [19]: 9 log AUC; log-transformed AUC [21]: 14.3 log AUC; log-transformed AUC [23]: 13.4 log AUC; log-transformed AUC [25]: 9.7 log AUC; log-transformed AUC [26]: 9.2 log AUC
CH103 lineage intermediate ancestor IA4 (antibody)						10.1	7.4								2.8	0.8	9.1	0.2	1.3	7.3	
CH105 (CH103 lineage monoclonal antibody)	9.4	10.5	7.5	11.4	12.4	11.2	10.5	9.5	12.2	6.7	7.5	13.5	10.6	7.1	8.3	3.6	10.8	9	10.1	8.2	log-transformed AUC [17]: 3.8 log AUC; log-transformed AUC [18]: 6.6 log AUC; log-transformed AUC [19]: 8.9 log AUC; log-transformed AUC [21]: 13.7 log AUC; log-transformed AUC [23]: 11.9 log AUC; log-transformed AUC [25]: 8.5 log AUC; log-transformed AUC [26]: 8.5 log AUC
CH103 CD4 binding site broadly neutralizing antibody	11.2	4.3	3.2	12.9	10.8	12.6	12.9	11.3	9	9.9	9.1	13.6	12.2	9.5	9.2	9.6	11.8	11.6	10.7	10.3	log-transformed AUC [17]: 9.9 log AUC; log-transformed AUC [18]: 8.9 log AUC; log-transformed AUC [19]: 11.1 log AUC; log-transformed AUC [21]: 11.8 log AUC; log-transformed AUC [23]: 9.7 log AUC; log-transformed AUC [25]: 11.5 log AUC; log-transformed AUC [26]: 10.2 log AUC
CH103 lineage unmutated common ancestor (UCA) (antibody)						3.5	0.3										1.6			0.8	
